Like-named read-outs stand apart in the source and are kept apart here. Values belong to the molecule of their own block, whether it stands above or below them. No end group written: not given here.
Assays:
[1] = biological target: recombinant human APRIL (human) (UniProt O75888); assay: cell-based or functional assay; design: IC50 APRIL (Δ TACI 30-110-Fc) / IC50 BAFF (Δ TACI 30-110-Fc): unit not given beside the values
[2] = biological target: recombinant human BAFF (human) (UniProt Q9Y275); assay: cell-based or functional assay; design: IC50 APRIL (Δ TACI 30-110-Fc) / IC50 BAFF (Δ TACI 30-110-Fc): unit not given beside the values
[3] = biological target: recombinant human APRIL (human) (UniProt O75888); assay: cell-based or functional assay; design: IC50 APRIL (Δ Parental vTD) / IC50 BAFF (Δ Parental vTD): unit not given beside the values
[4] = biological target: recombinant human BAFF (human) (UniProt Q9Y275); assay: cell-based or functional assay; design: IC50 APRIL (Δ Parental vTD) / IC50 BAFF (Δ Parental vTD): unit not given beside the values
[5] = biological target: T1, recombinant human APRIL (human, UniProt O75888 105-250, limits assumed); assay: cell-based or functional assay
T1 sequence (looked up): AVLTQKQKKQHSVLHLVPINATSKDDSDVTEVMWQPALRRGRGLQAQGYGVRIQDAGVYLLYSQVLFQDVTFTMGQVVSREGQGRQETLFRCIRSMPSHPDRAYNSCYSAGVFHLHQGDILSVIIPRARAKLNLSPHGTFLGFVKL

[6] = biological target: T2, recombinant human BAFF (human, UniProt Q9Y275 134-285); assay: cell-based or functional assay
[7] = biological target: T1, recombinant human APRIL; assay: cell-based or functional assay; remark: listed apart in the source
[8] = biological target: T2, recombinant human BAFF; assay: cell-based or functional assay; remark: listed apart in the source
[9] = biological target: T3, human CD80 (human, UniProt P33681 35-288); assay: cell-based or functional assay
T3 sequence (looked up): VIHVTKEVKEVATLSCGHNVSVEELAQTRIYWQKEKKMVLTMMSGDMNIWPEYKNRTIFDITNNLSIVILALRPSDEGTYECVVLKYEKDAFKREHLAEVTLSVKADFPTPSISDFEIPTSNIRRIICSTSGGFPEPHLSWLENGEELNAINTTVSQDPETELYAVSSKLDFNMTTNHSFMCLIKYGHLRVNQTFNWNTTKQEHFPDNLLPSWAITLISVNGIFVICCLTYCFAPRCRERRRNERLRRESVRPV

[10] = biological target: T4, human CD86 (human, UniProt P42081 24-329); assay: cell-based or functional assay
T4 sequence (looked up): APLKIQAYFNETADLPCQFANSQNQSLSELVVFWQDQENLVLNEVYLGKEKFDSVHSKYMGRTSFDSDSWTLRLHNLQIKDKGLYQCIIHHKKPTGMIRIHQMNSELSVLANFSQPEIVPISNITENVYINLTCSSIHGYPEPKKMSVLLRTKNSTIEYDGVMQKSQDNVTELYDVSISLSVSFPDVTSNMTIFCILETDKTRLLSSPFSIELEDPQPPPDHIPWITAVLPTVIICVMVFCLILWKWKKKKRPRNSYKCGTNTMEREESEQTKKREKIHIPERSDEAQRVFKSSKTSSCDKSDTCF

[11] = biological target: T5, recombinant human APRIL (human, UniProt O75888 105-250, limits assumed); assay: told in the description with reference to Example 8 (Jurkat/NF-κB/TACI reporter blockade)
T5 construct: also called human APRIL (Tonbo Biosciences)
T5 sequence (looked up): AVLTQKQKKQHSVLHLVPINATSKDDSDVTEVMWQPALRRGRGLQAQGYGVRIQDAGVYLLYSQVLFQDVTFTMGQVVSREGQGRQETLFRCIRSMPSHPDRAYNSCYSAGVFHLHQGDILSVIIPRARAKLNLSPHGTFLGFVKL

[12] = biological target: T6, recombinant human BAFF (human, UniProt Q9Y275 134-285); assay: as above
T6 construct: also called human BAFF (BioLegend)

[13] = biological target: T7, human ICOSL (human, UniProt O75144 19-302); assay: flow cytometry, cells expressing human ICOSL
T7 construct: whole, on cells
T7 sequence (looked up): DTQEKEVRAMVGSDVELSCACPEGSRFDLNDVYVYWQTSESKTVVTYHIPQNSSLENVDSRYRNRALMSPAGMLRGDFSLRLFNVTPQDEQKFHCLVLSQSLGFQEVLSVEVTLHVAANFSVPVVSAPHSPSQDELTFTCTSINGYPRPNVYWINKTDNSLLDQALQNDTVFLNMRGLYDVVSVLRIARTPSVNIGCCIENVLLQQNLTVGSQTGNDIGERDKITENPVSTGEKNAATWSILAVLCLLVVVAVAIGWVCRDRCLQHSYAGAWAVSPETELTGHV

Molecule: TACI 13-118-Fc (Fc fusion)
IC50 (nM) APRIL [1]: 9100 nM | IC50 APRIL (Δ TACI 30-110-Fc) [1]: 2.37 | IC50 (nM) BAFF [2]: 7700 nM | IC50 BAFF (Δ TACI 30-110-Fc) [2]: 1.33

Molecule: BCMA WT-Fc (Fc fusion)
IC50 (nM) APRIL [3]: 1.03 nM | IC50 APRIL (Δ Parental vTD) [3]: 1 | IC50 (nM) BAFF [4]: 0.995 nM | IC50 BAFF (Δ Parental vTD) [4]: 1 | IC50 (nM) APRIL [1]: 183 nM | IC50 APRIL (Δ TACI 30-110-Fc) [1]: 0.05 | IC50 (nM) BAFF [2]: 823 nM | IC50 BAFF (Δ TACI 30-110-Fc) [2]: 0.14

Molecule: TACI 30-110-Fc (Fc fusion)
IC50 (nM) APRIL [1]: 3850 nM | IC50 APRIL (Δ TACI 30-110-Fc) [1]: 1 | IC50 (nM) BAFF [2]: 5770 nM | IC50 BAFF (Δ TACI 30-110-Fc) [2]: 1

B1: CTLA-4 186 GSG4S Fc (G4S)4 TACI 541 (Fc fusion)
chain: KAMHVAQPAVVLASSRGIASFVCEYASPWKATEVRVTVLRQADSQVTEVCAATYMMGNELTFLDDSICTGTSSGNQVNLTIQGLRAMDTGLYICKVEQMYPPPYLLGIGNGTQIYVIDPEPCPDSDGSGGGGSEPKSSDKTHTCPPCPAPEAEGAPSVFLFPPKPKDTLMISRTPEVTCVVVDVSHEDPEVKFNWYVDGVEVHNAKTKPREEQYNSTYRVVSVLTVLHQDWLNGKEYKCKVSNKALPAPIEKTISKAKGQPREPQVYTLPPSRDELTKNQVSLTCLVKGFYPSDIAVEWESNGQPENNYKTTPPVLDSDGSFFLYSKLTVDKSRWQQGNVFSCSVMHEALHNHYTQKSLSLSPGGGGGSGGGGSGGGGSGGGGSSLSCRKEQGEYYDHLLRDCISCASICGQHPKQCADFCENKLRS
IC50 (nM) APRIL [5]: 1.56 nM | IC50 (nM) BAFF [6]: 0.103 nM | IC50 (nM) APRIL [7]: 272 nM | IC50 APRIL (Δ TACI 30-110-Fc) [7]: 0.07 ratio | IC50 (nM) BAFF [8]: 1260 nM | IC50 BAFF (Δ TACI 30-110-Fc) [8]: 0.22 ratio | CD80 IC50 [9]: 56.9 nM | CD80 IC50 (Δ Parental CTLA-4) [9]: 1.7 ratio | CD86 IC50 [10]: 10.2 nM | CD86 IC50 (Δ Parental CTLA-4) [10]: 1.2 ratio

B2: CTLA-4 186-GSG4S-Fc-(G4S)4-BCMA 406 (Fc fusion)
chain: KAMHVAQPAVVLASSRGIASFVCEYASPWKATEVRVTVLRQADSQVTEVCAATYMMGNELTFLDDSICTGTSSGNQVNLTIQGLRAMDTGLYICKVEQMYPPPYLLGIGNGTQIYVIDPEPCPDSDGSGGGGSEPKSSDKTHTCPPCPAPEAEGAPSVFLFPPKPKDTLMISRTPEVTCVVVDVSHEDPEVKFNWYVDGVEVHNAKTKPREEQYNSTYRVVSVLTVLHQDWLNGKEYKCKVSNKALPAPIEKTISKAKGQPREPQVYTLPPSRDELTKNQVSLTCLVKGFYPSDIAVEWESNGQPENNYKTTPPVLDSDGSFFLYSKLTVDKSRWQQGNVFSCSVMHEALHNHYTQKSLSLSPGGGGGSGGGGSGGGGSGGGGSLQMAGQCSQNEYFDSLLLACIPCQLRCSSNTPPLTCQRYCNASVTNSVKGTNA
IC50 (nM) APRIL [5]: 0.997 nM | IC50 (nM) BAFF [6]: 0.49 nM | IC50 (nM) APRIL [7]: 269 nM | IC50 APRIL (Δ TACI 30-110-Fc) [7]: 0.07 ratio | IC50 (nM) BAFF [8]: 2630 nM | IC50 BAFF (Δ TACI 30-110-Fc) [8]: 0.46 ratio | CD80 IC50 [9]: 25.2 nM | CD80 IC50 (Δ Parental CTLA-4) [9]: 0.8 ratio | CD86 IC50 [10]: 8.1 nM | CD86 IC50 (Δ Parental CTLA-4) [10]: 1.3 ratio

B3: TACI WT Fc (Fc fusion, not shown: a dimerising Fc or GST)
chain: VAMRSCPEEQYWDPLLGTCMSCKTICNHQSQRTCAAFCRSLSCRKEQGKFYDHLLRDCISCASICGQHPKQCAYFCENKLRS
IC50 (nM) APRIL [3]: 9.17 nM | IC50 APRIL (Δ Parental vTD) [3]: 1 | IC50 (nM) BAFF [4]: 2.58 nM | IC50 BAFF (Δ Parental vTD) [4]: 1

B4: 528 TACI CRD2-Fc (Fc fusion, not shown: a dimerising Fc or GST)
chain: SLSCRKEQGKFYDHLLRDCISCASICGQHPKQCAYFCENKLRS
modifications: not fully specified (C-terminus); cysteine pairing not given here; also: Fc fusion, linker and Fc not given here
IC50 (nM) APRIL [1]: 369 nM | IC50 APRIL (Δ TACI 30-110-Fc) [1]: 0.1 | IC50 (nM) BAFF [2]: 1330 nM | IC50 BAFF (Δ TACI 30-110-Fc) [2]: 0.23

B6: Belimumab (antibody, V domains shown)
VH: QVQLQQSGAEVKKPGSSVRVSCKASGGTFNNNAINWVRQAPGQGLEWMGGIIPMFGTAKYSQNFQGRVAITADESTGTASMELSSLRSEDTAVYYCARSRDLLLFPHHALSPWGRGTMVTVSS
VL: SSELTQDPAVSVALGQTVRVTCQGDSLRSYYASWYQQKPGQAPVLVIYGKNNRPSGIPDRFSGSSSGNTASLTITGAQAEDEADYYCSSRDSSGNHWVFGGGTELTVLG
IC50 (nM) APRIL [7]: 215000 nM | IC50 APRIL (Δ TACI 30-110-Fc) [7]: 55.8 ratio | IC50 (nM) BAFF [8]: 2500 nM | IC50 BAFF (Δ TACI 30-110-Fc) [8]: 0.43 ratio

Further lines, results first:

binding result [11]: binds | binding result [12]: binds
B5: 528 TACI CRD2-Fc (Fc fusion, not shown: a dimerising Fc or GST)
chain: SLSCRKEQGKFYDHLLRDCISCASICGQHPKQCAYFCENKLRS
modifications: cysteine pairing not given here; also: Fc fusion, linker and Fc not given here
notes: Fc fusion; also called WT TACI-Fc containing only the CRD2 domain of TACI; TACI 68-110 Fc

CD80 IC50 [9]: 33.6 nM | CD80 IC50 (Δ Parental CTLA-4) [9]: 1 ratio | CD86 IC50 [10]: 8.2 nM | CD86 IC50 (Δ Parental CTLA-4) [10]: 1 ratio | MFI [13]: 570 MFI
B7: variant CTLA-4 ECD-Fc G29W/L98Q/Y105L (Fc fusion)
chain: KAMHVAQPAVVLASSRGIASFVCEYASPWKATEVRVTVLRQADSQVTEVCAATYMMGNELTFLDDSICTGTSSGNQVNLTIQGLRAMDTGLYICKVEQMYPPPYLLGIGNGTQIYVIDPEPCPDSDGSGGGGSEPKSSDKTHTCPPCPAPEAEGAPSVFLFPPKPKDTLMISRTPEVTCVVVDVSHEDPEVKFNWYVDGVEVHNAKTKPREEQYNSTYRVVSVLTVLHQDWLNGKEYKCKVSNKALPAPIEKTISKAKGQPREPQVYTLPPSRDELTKNQVSLTCLVKGFYPSDIAVEWESNGQPENNYKTTPPVLDSDGSFFLYSKLTVDKSRWQQGNVFSCSVMHEALHNHYTQKSLSLSPG

MFI [13]: 700 MFI
B8: variant CTLA-4 ECD-Fc M56T/L98Q/Y105L (Fc fusion)
chain: KAMHVAQPAVVLASSRGIASFVCEYASPGKATEVRVTVLRQADSQVTEVCAATYMTGNELTFLDDSICTGTSSGNQVNLTIQGLRAMDTGLYICKVEQMYPPPYLLGIGNGTQIYVIDPEPCPDSDGSGGGGSEPKSSDKTHTCPPCPAPEAEGAPSVFLFPPKPKDTLMISRTPEVTCVVVDVSHEDPEVKFNWYVDGVEVHNAKTKPREEQYNSTYRVVSVLTVLHQDWLNGKEYKCKVSNKALPAPIEKTISKAKGQPREPQVYTLPPSRDELTKNQVSLTCLVKGFYPSDIAVEWESNGQPENNYKTTPPVLDSDGSFFLYSKLTVDKSRWQQGNVFSCSVMHEALHNHYTQKSLSLSPG

— patent publication US20230241168A1 (ALPINE IMMUNE SCIENCES, published 2023)
